Target: T1, PDZ3 (the third PDZ domain of the neuronal signaling protein PSD-95/SAP90, residue 303-395) (UniProt P31016 303-395)
T1 construct: third PDZ domain of PSD-95/SAP90, residues 303-395; 15N-labelled for the NMR titration; also called PDZ3^303-395
Experiment: NMR titration; 2D 1H-15N HSQC of 15N-labelled PDZ3 303-395 (20 uM) titrated with CRIPT peptide 0-100 uM; 308 K; 20 mM sodium phosphate, 50 mM NaCl, pH 7.0; no osmolyte; single-site fit of 12 backbone amides, averaged
Settings: both partners purified

T1 sequence (P31016 303-395): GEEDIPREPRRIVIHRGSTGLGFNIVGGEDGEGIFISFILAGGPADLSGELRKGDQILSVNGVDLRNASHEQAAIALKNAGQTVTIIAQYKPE

Kd: ~13 µM
B1: C-terminal peptide from CRIPT (Ac-TKNYKQTSV-COOH) (peptide)
peptide: Ac-TKNYKQTSV-OH
notes: C-terminal nine residues of CRIPT; also called CRIPT peptide; source: synthetic peptide (APeptide Co. Ltd, Shanghai, China)

— publication PMC7511342, “Polyol and sugar osmolytes can shorten protein hydrogen bonds to modulate function” (Communications Biology, 2020)
